# Experimental data from patent US20040002457A1, “Inhibition of virus anchorage by RGG domain of a cell surface-expressed protein, polynucleotide coding for said RGG domain, therapeutic uses thereof by inhibition of microorganism or protein ligand binding to the cell-surface-expressed protein” (priority 2002, published 2004).
# No end group written: not given here.
# B1: HB-19A, pseudopeptide 5[K-Psi(CH2N)-PR]-TASP with a modified TASP template (peptide)
# peptide: Lys-Pro-Arg
# chain: KKKKA
# modifications: also: reduced amide bond Psi(CH2N) between Lys and Pro in each KPR, five KPR copies on the KKKKA template: alpha-NH2 of the four template Lys and epsilon-NH2 of the N-terminal Lys, template Lys linked through their epsilon-NH2 groups
# How the values were obtained:
# [1] = target: T1, cell-surface-expressed hamster nucleolin (on CHO K1, CHO 677 and CHO 618 cells) (Chinese hamster), A0A8C2; assay: biotinylated HB-19A on wild type CHO K1 cells, streptavidin-HRP
# T1 chain: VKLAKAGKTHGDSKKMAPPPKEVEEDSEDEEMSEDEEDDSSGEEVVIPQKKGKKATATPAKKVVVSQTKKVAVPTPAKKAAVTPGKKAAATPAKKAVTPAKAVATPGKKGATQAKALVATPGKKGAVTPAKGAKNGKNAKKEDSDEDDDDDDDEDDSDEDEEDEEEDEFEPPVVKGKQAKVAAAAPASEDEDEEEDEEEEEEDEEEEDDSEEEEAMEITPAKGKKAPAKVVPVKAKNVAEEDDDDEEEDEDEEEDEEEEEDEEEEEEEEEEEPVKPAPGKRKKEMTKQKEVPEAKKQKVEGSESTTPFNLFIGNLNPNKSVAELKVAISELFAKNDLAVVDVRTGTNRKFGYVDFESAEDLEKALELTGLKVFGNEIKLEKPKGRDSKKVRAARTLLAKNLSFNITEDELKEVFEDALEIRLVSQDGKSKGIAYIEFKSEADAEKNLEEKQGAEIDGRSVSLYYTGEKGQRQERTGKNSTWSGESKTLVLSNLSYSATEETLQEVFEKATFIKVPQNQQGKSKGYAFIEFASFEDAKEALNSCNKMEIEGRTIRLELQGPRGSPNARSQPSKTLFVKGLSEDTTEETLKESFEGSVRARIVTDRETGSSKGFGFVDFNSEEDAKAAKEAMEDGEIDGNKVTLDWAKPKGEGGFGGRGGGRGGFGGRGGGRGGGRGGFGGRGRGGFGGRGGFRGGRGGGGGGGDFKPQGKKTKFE
# [2] = target: GST-G, GST fusion of the RGG domain of human nucleolin alone (human), P19338; assay: dose series 0-10 µM biotinylated HB-19A, avidin-agarose pull-down, anti-GST immunoblot
# Chain of GST-G, GST fusion of the RGG domain of human nucleolin alone (human), P19338 (P19338 648-710): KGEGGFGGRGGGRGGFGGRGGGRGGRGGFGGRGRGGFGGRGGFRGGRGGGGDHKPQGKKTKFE
# [3] = target: cell-surface-expressed human nucleolin (on HeLa P4 and MT4 cells) (human), P19338; assay: 125I-labeled HB-19A on HeLa P4 cell monolayers, wash at 300 mM NaCl
# Chain of cell-surface-expressed human nucleolin (on HeLa P4 and MT4 cells) (human), P19338 (P19338 2-710): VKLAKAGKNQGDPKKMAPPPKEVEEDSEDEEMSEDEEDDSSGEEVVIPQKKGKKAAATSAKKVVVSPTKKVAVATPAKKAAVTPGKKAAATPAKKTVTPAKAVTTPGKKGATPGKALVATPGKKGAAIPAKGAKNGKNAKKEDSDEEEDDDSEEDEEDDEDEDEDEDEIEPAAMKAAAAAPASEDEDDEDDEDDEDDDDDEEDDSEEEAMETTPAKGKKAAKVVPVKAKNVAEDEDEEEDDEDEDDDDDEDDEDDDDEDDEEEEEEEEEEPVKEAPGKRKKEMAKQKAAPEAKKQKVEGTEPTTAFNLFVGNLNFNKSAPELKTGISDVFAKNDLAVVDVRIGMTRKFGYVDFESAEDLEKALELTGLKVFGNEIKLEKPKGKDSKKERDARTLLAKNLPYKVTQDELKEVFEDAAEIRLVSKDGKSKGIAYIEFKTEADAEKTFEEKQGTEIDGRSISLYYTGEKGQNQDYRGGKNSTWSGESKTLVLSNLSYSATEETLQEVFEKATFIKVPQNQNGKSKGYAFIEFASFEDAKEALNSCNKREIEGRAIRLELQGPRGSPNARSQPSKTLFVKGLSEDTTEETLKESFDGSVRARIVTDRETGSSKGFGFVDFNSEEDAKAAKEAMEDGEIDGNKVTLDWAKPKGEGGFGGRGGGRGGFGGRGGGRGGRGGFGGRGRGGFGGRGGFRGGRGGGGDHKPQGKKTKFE
# [4] = target: GST-R234G, GST fusion of human nucleolin RBDs II, III, IV and the RGG domain (human) (UniProt P19338); assay: dose series 0-10 µM biotinylated HB-19A, avidin-agarose pull-down, anti-GST immunoblot
# Chain of GST-R234G, GST fusion of human nucleolin RBDs II, III, IV and the RGG domain (human) (P19338 389-710, stated change not applied): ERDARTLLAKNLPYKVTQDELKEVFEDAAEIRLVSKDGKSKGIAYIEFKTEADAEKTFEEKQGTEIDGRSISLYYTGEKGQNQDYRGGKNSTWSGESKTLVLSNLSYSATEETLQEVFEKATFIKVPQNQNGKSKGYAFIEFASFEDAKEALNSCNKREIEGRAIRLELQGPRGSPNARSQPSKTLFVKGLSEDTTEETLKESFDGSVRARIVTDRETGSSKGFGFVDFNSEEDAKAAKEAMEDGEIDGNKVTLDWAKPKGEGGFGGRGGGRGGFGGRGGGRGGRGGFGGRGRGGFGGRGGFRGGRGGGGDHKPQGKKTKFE
# [5] = target: GST-R1234G, GST fusion of the C-terminal part of human nucleolin (RBDs I-IV and RGG domain) (human) (UniProt P19338); assay: as above
# Chain of GST-R1234G, GST fusion of the C-terminal part of human nucleolin (RBDs I-IV and RGG domain) (human) (P19338 308-707, stated change not applied): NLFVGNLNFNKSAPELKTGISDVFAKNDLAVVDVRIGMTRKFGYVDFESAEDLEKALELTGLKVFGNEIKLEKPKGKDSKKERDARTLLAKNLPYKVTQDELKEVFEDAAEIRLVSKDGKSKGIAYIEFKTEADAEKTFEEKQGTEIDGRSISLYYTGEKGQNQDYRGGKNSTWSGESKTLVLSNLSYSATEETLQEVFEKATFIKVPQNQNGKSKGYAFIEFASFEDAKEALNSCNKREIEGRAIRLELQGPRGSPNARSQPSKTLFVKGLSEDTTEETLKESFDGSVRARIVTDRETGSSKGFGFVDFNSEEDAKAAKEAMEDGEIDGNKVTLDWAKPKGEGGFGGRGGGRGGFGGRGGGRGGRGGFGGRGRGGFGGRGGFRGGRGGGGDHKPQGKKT
binder,measurement,setting,value
B1,HB-19A concentration at saturation of binding,[1],1 µM
same,HB-19A concentration at maximum binding,[2],5 µM
same,HB-19A concentration at saturation of specific binding,[3],1 µM
same,HB-19A concentration at maximum binding,[4],5 µM
same,HB-19A concentration at maximum binding,[5],5 µM
